Source: PMC10576006 (2023)

Legend:
[1] = target: T1, human wildtype KRas4B 1-169 (C-terminal truncated) (human, UniProt P01116-2 1-169); assay: BLI; 1:2 bivalent model
[2] = target: T1, human wildtype KRas4B 1-169 (C-terminal …); assay: BLI; 2:1 heterogeneous model, binding type 2 (69-99 %)

Kd [1]: 48.2 µM
Kd [2]: 1.62 µM
B1: GST-Rgl2^RA (Ras association domain of human Rgl2, residues 643-740, fused with GST) (domain or fragment)
chain: GPGASDCRIIRVQMELGEDGSVYKSILVTSQDKAPSVISRVLKKNNRDSAVASEYELVQLLPGERELTIPASANVFYAMDGASHDFLLRQRRRSSTAT
